Source: the supplement of paper PMC10567573
± gives the standard deviation.

Test: protein stability index of a GFP-peptide fusion (GPS, HEK-293T) (PSI 1-6); higher = more stable
[1] = treatment: DMSO, c terminus: a fixed tail appended
[2] = treatment: MLN4924 1 uM, 8 h, c terminus: a fixed tail appended
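Further: 24-mer peptide tiles fused after GFP, lentivirally expressed, FACS-sorted into six equal bins by GFP/DsRed ratio, decoded by Illumina sequencing, PSI is the read-weighted mean bin number.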

Row | Sequence | protein stability index (treatment: DMSO, c terminus: native) | protein stability index (treatment: MLN4924 1 uM, 8 h, c terminus: native) | protein stability index [1] | protein stability index [2]
1 | YKKGIIRKPDISQRLVYQFVHPI [SPDEF] | 2.43 ± 0.48 | 2.63 ± 0.4 |  | 
2 | GGGPSATEWACILRRKTPRHKQPT [C6orf223] |  |  | 3.57 ± 0.12 | 3.72 ± 0.16
3 | SVKKQGETVADVRTLPNASTVDNI [MLH1] |  |  | 5.12 ± 0.12 | 5.25 ± 0.14
4 | IIKQLQKGVQQKRPSEAQSVILRR [DENND6A] |  |  | 3.08 ± 0.2 | 2.9 ± 0.14
5 | DFLLRAASFDVCESVDEAGGSGPA [RHOBTB2] |  |  | 3.96 ± 0.16 | 4.05 ± 0.29
6 | TLAALLLNRSESDIRYLLGYVSQQ [FEM1B] |  |  | 2.39 ± 0.42 | 2.52 ± 0.61
7 | MEEFRRSYSRLCRESGAEPQEAVL [LRRC45] |  |  | 3.77 ± 0.22 | 3.84 ± 0.27
8 | ICKEVQAEQEPTRKLFEVESVTHH [SPAG8] |  |  | 4.47 ± 0.12 | 4.77 ± 0.07
9 | NEHSAHCPHTPEFSVTGGTEEKSS [RPAIN] |  |  | 5.44 ± 0.24 | 5.28 ± 0.15
10 | AEEAESHFSSIPDAFWWAVVSMTT [KCNA1] |  |  | 2.11 ± 0.31 | 2.1 ± 0.24
11 | FSQEIGLASLGASEEAVQKLATCY [TPH1] |  |  | 3.12 ± 0.18 | 3.34 ± 0.3
12 | TNTRRGSRAPCKVQGLEGIKMAMV [NEK8] |  |  | 2.32 ± 0.25 | 2.32 ± 0.23
13 | DTLGLGKTRRKTSARDASPTPSTD [NCK2] |  |  | 5.36 ± 0.25 | 5.15 ± 0.34
14 | VESLKRFCASTRLPPTPLLLFPEE [AUP1] |  |  | 2.81 ± 0.35 | 3.01 ± 0.35
15 | AEPAMPGRLYVHPDSPATGAHWMR [TBX5] |  |  | 3.5 ± 0.36 | 3.44 ± 0.21
16 | KKRRAQQAPPQDSSNKKEKKVLNH [DYRK1B] |  |  | 5.2 ± 0.32 | 5.3 ± 0.13
17 | AQAGTPAPTKPHDYRQEQPETFWI [SPAG8] |  |  | 3.54 ± 0.29 | 3.59 ± 0.29
18 | LQDVIMQVADVPEKPRVPAFACQV [ZNF511] |  |  | 2.37 ± 0.28 | 2.69 ± 0.21
19 | GPRVGEALVSHPEVPLISFTGSQP [ALDH8A1] |  |  | 3.77 ± 0.34 | 4.09 ± 0.31
20 | SRGTSQTPNASSPGNPTALANGTV [LPCAT4] |  |  | 4.73 ± 0.051 | 4.77 ± 0.068
21 | PELLVGDTQYGSSVDIWAIGCVFA [CDKL4] |  |  | 2.14 ± 0.57 | 2.73 ± 0.98
22 | RGIDIIKWMERYLRDKTVMIIVAI [TRAF3IP2] |  |  | 2.25 ± 0.31 | 2.33 ± 0.42
23 | IDYYTETKILQERAVLGANDPEKN [NSDHL] |  |  | 4.76 ± 0.22 | 5.02 ± 0.46

Row | Sequence | protein stability index (treatment: DMSO, c terminus: native) | protein stability index (treatment: MLN4924 1 uM, 8 h, c terminus: native) | protein stability index [1] | protein stability index [2]
24 | RVRGLGLPKLYLPTGPRRGRDELG [CDKN1A] |  |  | 3.33 ± 0.58 | 3.43 ± 0.057
25 | LSSVPSEAQISDPFAPEPTPPTTT [SNAP91] |  |  | 5.38 ± 0.079 | 5.3 ± 0.2
26 | AFGAPIGGTLFSLEEGSSFWNQGL [CLCN6] |  |  | 2.47 ± 0.27 | 2.47 ± 0.35
27 | DHNEAMKPEEPPQNLLREKIMKLP [PCMTD1] |  |  | 4.63 ± 0.32 | 4.66 ± 0.12
28 | ALHLAARNGHLATVKLLVEEKADV [RIPK4] |  |  | 2.85 ± 0.17 | 3.06 ± 0.3
29 | KIGDTKRNTPIEALCENFPEEMAT [CSNK1G1] |  |  | 5.14 ± 0.2 | 5.31 ± 0.2
30 | IVSQKQIADRAAHDESPGNNVVDI [RAB11B] |  |  | 5.16 ± 0.12 | 5.12 ± 0.1
31 | IHDLDLTLLNPRMIVDVTPYMNPS [CLCN6] |  |  | 2.29 ± 0.19 | 2.26 ± 0.25
32 | AGLGPGSRRPLDEAVAGAEGREAP [DENND6A] |  |  | 5.39 ± 0.23 | 5.04 ± 0.39
33 | GASLYAISNVCEEYIVKKLSRQEF [SLC35F2] |  |  | 2.3 ± 0.27 | 2.45 ± 0.43
34 | EAFALPDSLLVVLDMDEGTLSFIV [SPSB4] |  |  | 2.42 ± 0.21 | 2.53 ± 0.31
35 | MAEESSCTRDCMSFSVLNWDQVSR [TENT5C] |  |  | 2.71 ± 0.29 | 2.99 ± 0.22
36 | GNIIAHASTTRLYLRKGRGETRIC [RAD51] |  |  | 3.11 ± 0.44 | 3.16 ± 0.34
37 | GSCSTEVEKETQEKMTILQTYFRQ [ATP6V1G1] |  |  | 2.5 ± 0.25 | 2.62 ± 0.3
38 | VASLERFSTYTSDKDENKLSEASG [ZC3H15] |  |  | 5.01 ± 0.42 | 4.96 ± 0.2
39 | AKLVPSEREASPSNSCQDSTDTES [IKZF1] |  |  | 5.41 ± 0.41 | 5.53 ± 0.24
40 | HVTVVILFFVPCIFLYARPNSTFP [OR4A15] |  |  | 2.83 ± 0.9 | 2.77 ± 0.51
41 | LVTIARKASLWQFLSSEKQICGTH [TRIM43] |  |  | 2.06 ± 0.34 | 2.17 ± 0.45
42 | WASCLQYDFDTQYAFVGDYSGQIT [WDFY1] |  |  | 2.43 ± 0.39 | 2.2 ± 0.21
43 | AGSKVKDMAGDWHWALRVTPGLGV [SPNS1] |  |  | 2.07 ± 0.28 | 2.1 ± 0.26
44 | RTHTGEKPYKCTLCGENFSHRSNL [ZNF263] |  |  | 2.43 ± 0.27 | 2.79 ± 0.53
45 | MERTGGIGDSRPPSFHPHAGGGSQ [DVL3] |  |  | 4.5 ± 0.18 | 4.69 ± 0.16
46 | TVGCSSQHTPDQANSDRASIGRRR [PLEKHN1] |  |  | 5.04 ± 0.36 | 5.02 ± 0.15

Row | Sequence | protein stability index (treatment: DMSO, c terminus: native) | protein stability index (treatment: MLN4924 1 uM, 8 h, c terminus: native) | protein stability index [1] | protein stability index [2]
47 | KTSLAPYVKVFEHFLENLDKSRKG [PRIM1] |  |  | 2.54 ± 0.39 | 3.12 ± 0.46
48 | ALSSFREESRFCDAHLVLDGEEIP [GAN] |  |  | 4.51 ± 0.18 | 4.59 ± 0.14
49 | NKWTVQYNVSPLSWNVAVKFLMAR [PTPN9] |  |  | 2.47 ± 0.54 | 2.15 ± 0.38
50 | FRRTDGRCLIWGRKPKVIECSYTS [DHCR7] |  |  | 2.35 ± 0.17 | 2.34 ± 0.33
51 | QSEPSEQDGVLDLSTKKSPCAGST [LCOR] |  |  | 5.39 ± 0.22 | 5.46 ± 0.29
52 | YPPFWDEDQHKLYQQIKAGAYDFP [CAMK2B] |  |  | 2.85 ± 0.35 | 3.11 ± 0.056
53 | EGVPSVFNPPPSRPLQVNTADHRI [FAF2] |  |  | 4.421 ± 0.042 | 4.503 ± 0.037
54 | SSCTHVTGNYRKGNAHLGYSLVTH [ADAMTSL2] |  |  | 2.92 ± 0.7 | 2.77 ± 0.42
55 | RLPRQNSDGGQKNKPREHIIDCGD [WSB1] |  |  | 4.54 ± 0.39 | 5.07 ± 0.095
56 | IKEEENSEEELAAATTSKEQEPIG [MYBL2] |  |  | 5.7 ± 0.31 | 5.72 ± 0.21
57 | KGHNTPKDIAHFWELGGGTSLLDL [DYNC2LI1] |  |  | 3.02 ± 0.28 | 3.2 ± 0.11
58 | MTSTGQDSTTTRQRRSRQNPQSPP [HDAC6] |  |  | 5.46 ± 0.14 | 5.4 ± 0.12
59 | SVPMNGTSIQWKNHDQNNHNTDRS [EDNRA] |  |  | 4.5 ± 0.29 | 4.92 ± 0.24
60 | WNQILDPWVYILLRKAVLKNLYKL [PTGFR] |  |  | 2.7 ± 1.1 | 2.03 ± 0.93
61 | VLRHFHLLSDGSNTLSVSYKKGRM [SLC6A17] |  |  | 2.12 ± 0.39 | 2.61 ± 0.17
62 | EQAPAPGEATAAPAPLCGGPSAEA [TBX6] |  |  | 5.5 ± 0.31 | 5.46 ± 0.25
63 | EGEADHSGYAGELGFRAFSGSGNR [UFD1] |  |  | 4.63 ± 0.25 | 4.69 ± 0.54
64 | TIPLFVQLLYSPIENIQRVAAGVL [CTNNB1] |  |  | 2.77 ± 0.78 | 2.71 ± 0.38
65 | DLVTGGELFEDIVAREYYSEADAS [CAMK2B] |  |  | 4.73 ± 0.2 | 4.52 ± 0.34
66 | QCLEDLVNHYSEVADGLCCVLTTP [SLA] |  |  | 2.11 ± 0.39 | 2.27 ± 0.36
67 | AGRAAAPELSYRVCVGSDVTSIHK [MYORG] |  |  | 3.32 ± 0.17 | 3.35 ± 0.24
68 | LSDLEDLEEEEEEEEEAEDEEVVA [IRX6] |  |  | 5.63 ± 0.23 | 5.81 ± 0.077
69 | EEKKLRRSQHARKETEFLRLKRTR [STK38L] |  |  | 3.01 ± 0.16 | 3.25 ± 0.27

Row | Sequence | protein stability index (treatment: DMSO, c terminus: native) | protein stability index (treatment: MLN4924 1 uM, 8 h, c terminus: native) | protein stability index [1] | protein stability index [2]
70 | LTASGDGTCALWDVESGQLLQSFH [GNB5] |  |  | 2.67 ± 0.36 | 2.76 ± 0.24
71 | HTEVVRDLTFAPDGSLILVSASRD [WSB1] |  |  | 3.45 ± 0.054 | 3.53 ± 0.27
72 | FMHSFEEKYGRAHPVFYQGTYSQA [FAF2] |  |  | 2.18 ± 0.21 | 2.42 ± 0.28
73 | ALATVSLLSLVTFTFLSAKCLQGN [PCDHGC5] |  |  | 3.2 ± 0.29 | 3.16 ± 0.23
74 | PCLCLSWEEAQSPANCPACREPSP [TRIM43] |  |  | 4.74 ± 0.24 | 4.79 ± 0.15
75 | FKDKSTYIESSTKVYDDMAFRYLS [CLPTM1] |  |  | 2.65 ± 0.33 | 2.57 ± 0.32
76 | GAFYRRAQRLRPQDEPRQGCQPED [KCNG1] |  |  | 5.21 ± 0.18 | 5.11 ± 0.11
77 | VGKSEILESLQDGAAESPYSHLGG [RAB40A] |  |  | 4.56 ± 0.27 | 4.46 ± 0.19
78 | VLDLRKNSHQDFWTVWSGNRASLY [PRAME] |  |  | 2.19 ± 0.3 | 2.3 ± 0.19
79 | ECIYIIEAAPRQCIELYFDEKYSI [NETO1] |  |  | 3.08 ± 0.46 | 2.95 ± 0.32
80 | MENVPKENKVVEKAPVQNEAPALG [BEX5] |  |  | 5.33 ± 0.19 | 5.46 ± 0.16
81 | LEVAMEEEGLADEEKKLRRSQHAR [STK38L] |  |  | 5.43 ± 0.3 | 5.27 ± 0.35
82 | TVVKSLIDNSSEIEDEDQILENSS [FAN1] |  |  | 5.202 ± 0.02 | 5.38 ± 0.13
83 | GHCLLDKPEAPLHLPVTFPGKDYD [ADAMTS4] |  |  | 4.14 ± 0.26 | 4.4 ± 0.3
84 | SRTVRQFQFTDWPEQGVPKSGEGF [PTPRD] |  |  | 3.88 ± 0.25 | 4.02 ± 0.68
85 | DVFSENLLADVKGARAALNEIESR [STX11] |  |  | 4.22 ± 0.22 | 4.37 ± 0.12
86 | DQTALSLEECLRLLEATCPFGENA [NFE2L1] |  |  | 3.31 ± 0.72 | 3.8 ± 0.74
87 | ERSVVTRDIRCSEDEKLCDPNTRP [ADAMTSL2] |  |  | 5.06 ± 0.31 | 5.41 ± 0.27
88 | RSLNVASGSGKSGGYGFGRGRASG [KRT71] |  |  | 4.35 ± 0.38 | 4.49 ± 0.27
89 | ACKSLQTRQNGIQTNKPALRAVRQ [STX5] |  |  | 4.07 ± 0.17 | 3.95 ± 0.2
